Measured values from article PMC6019379, “RecA-like domain 2 of DNA-dependent ATPase A domain, a SWI2/SNF2 protein, mediates conformational integrity and ATP hydrolysis” (Bioscience Reports, 2018).
Positions count from the first letter of the chain named.

Tests used:
Experiment in all cases: intrinsic tryptophan fluorescence titration; no ATP; Fluorescence titration (ex 295 nm, em 340 nm), one-site saturation fit; buffer, salt, pH and temperature not given in the material. Wild-type ADAAD Kd values are cited from ref 24 and not listed
Settings in all cases: protein: recombinant; tags: His (Ni-NTA, pET-14b); hairpin
[1] = biological target: T1, ADAAD S558A (Bos taurus (bovine), UniProt Q9TTA5 221-940, S778A)
T1 sequence: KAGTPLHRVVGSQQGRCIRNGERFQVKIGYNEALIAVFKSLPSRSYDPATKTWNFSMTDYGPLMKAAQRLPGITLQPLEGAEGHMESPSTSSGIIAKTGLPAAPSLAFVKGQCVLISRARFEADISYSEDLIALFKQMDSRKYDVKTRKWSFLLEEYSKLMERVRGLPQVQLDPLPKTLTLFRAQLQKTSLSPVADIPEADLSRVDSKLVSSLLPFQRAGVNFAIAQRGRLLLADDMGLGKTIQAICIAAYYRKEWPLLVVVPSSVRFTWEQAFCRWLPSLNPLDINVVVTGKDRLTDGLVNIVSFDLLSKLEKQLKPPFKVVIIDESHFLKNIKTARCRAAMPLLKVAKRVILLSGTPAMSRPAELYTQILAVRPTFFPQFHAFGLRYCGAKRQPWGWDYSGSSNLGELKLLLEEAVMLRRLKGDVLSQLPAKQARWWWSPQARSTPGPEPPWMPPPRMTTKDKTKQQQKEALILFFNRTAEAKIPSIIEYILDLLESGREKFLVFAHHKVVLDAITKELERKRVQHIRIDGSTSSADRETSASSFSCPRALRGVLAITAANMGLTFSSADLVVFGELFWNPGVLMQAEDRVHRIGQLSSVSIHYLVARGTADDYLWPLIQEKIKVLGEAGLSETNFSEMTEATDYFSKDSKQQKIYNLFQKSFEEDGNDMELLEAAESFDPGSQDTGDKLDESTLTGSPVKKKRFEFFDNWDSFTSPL

[2] = biological target: T2, ADAAD F507A (Bos taurus (bovine), UniProt Q9TTA5 221-940, F727A)
T2 sequence: T1 sequence with F507A, A558S

[3] = biological target: T3, ADAAD R595A (Bos taurus (bovine), UniProt Q9TTA5 221-940, R815A)
T3 sequence: T1 sequence with A558S, R595A

In the case of GCGCAATTGCGCTCGACGATTTTTTAGCGCAATTGCGC (structured_DNA) [slDNA (stem-loop DNA)], the Kd [1] is reported as 11 ± 2.7 nM, the Kd [2] is reported as 19 ± 4.5 nM and the Kd [3] is reported as 24 ± 0.6 nM.
